A short description of this data set: protein stability index of a GFP-peptide fusion (GPS, HEK-293T) (PSI 1-6); higher = more stable. As to conditions: c terminus: a fixed tail appended.

± gives the standard deviation.
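Also: 24-mer peptide tiles fused after GFP, lentivirally expressed, FACS-sorted into six equal bins by GFP/DsRed ratio, decoded by Illumina sequencing, PSI is the read-weighted mean bin number.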

Consider RLLGSARPELGAALGIYGAPYAAA [IRX6], for which the protein stability index reads like this: (treatment: DMSO) 2.27 ± 0.42; (treatment: MLN4924 1 uM, 8 h) 2.44 ± 0.47.
In the same order, the values of RLRVELECEEGELSFYDAERHCHL [TRIM35] are 3.66 ± 0.17 and 3.75 ± 0.075.
The corresponding values for RLSRRMASQHSYPLNRFSSVPLDP [CBY2] are 3.22 ± 0.27 and 3.45 ± 0.22.
The corresponding values for RLSVPRDSACDESSCIPKAFGNPK [IRX6] are 4.84 ± 0.18 and 4.89 ± 0.19.
For RLVESTSLRKAIETVYAAYLPKNT [MLH1], the protein stability index (treatment: DMSO) stood at 2.2 ± 0.27.
Regarding RMEYVHSKNLIYRDVKPENFLIGR [CSNK1G1], the protein stability index (treatment: DMSO) worked out at 2.45 ± 0.16 and the protein stability index (treatment: MLN4924 1 uM, 8 h) is 2.79 ± 0.31.
In the same order, the values of RMGLMKANHVFFLLYLLHILLLDG [FADS1] are 2.94 ± 0.83 and 2.68 ± 0.52.
In the same order, the values of RMSYQDPAQLSCLPYLEHVGHNHT [NFE2L1] are 2.98 ± 0.2 and 3.12 ± 0.28.
The corresponding values for RNVRERIAKNLVEKGILTTEKQNF [GOLPH3L] are 3.73 ± 0.22 and 3.82 ± 0.2.
With RPGHLPGLLLGSHGLLGSPVRAAA [CDC25B], the protein stability index reads like this: (treatment: DMSO) 3.31 ± 0.53; (treatment: MLN4924 1 uM, 8 h) 3.09 ± 0.42.
In the same order, the values of RPVSCSGRDALLDQIRQGIQLKSV [WASL] are 5.08 ± 0.56 and 4.95 ± 0.21.
In the same order, the values of RPYMCKECGKAFSQNSSLVQHERI [ZNF8] are 2.82 ± 0.16 and 3.24 ± 0.45.
For the sequence RQIRTNWATRKPPAPKSTYECRCI [TIA1], the protein stability index was found to be 2.56 ± 0.17 (treatment: DMSO) and 2.85 ± 0.45 (treatment: MLN4924 1 uM, 8 h).
In the same order, the values of RQMAFDFARVKKGADGVMRTMAPE [SNAP91] are 3.47 ± 0.38 and 3.43 ± 0.16.
Turning to RQPPPPAPQHPQPGSQALPAPALA [FBXO28], the protein stability index is, setting by setting: (treatment: DMSO) 4.45 ± 0.23; (treatment: MLN4924 1 uM, 8 h) 4.74 ± 0.16.
RQVALGAMEAVRVNPLHVDSTWLL [SLC25A39]: the protein stability index runs as follows: (treatment: DMSO) 2.53 ± 0.27; (treatment: MLN4924 1 uM, 8 h) 2.52 ± 0.069.
The corresponding values for RRATSGGKWPQVLFFPEGTCSNKK [LPCAT4] are 3.72 ± 0.31 and 3.78 ± 0.13.
In the same order, the values of RRCGKCFCDRCCSQKVPLRRMCFV [ZFYVE21] are 2.31 ± 0.45 and 2.31 ± 0.39.
The corresponding values for RRGGGPVFPAPVVGSGGATSGKLL [ZBTB22] are 4.104 ± 0.027 and 4.33 ± 0.29.
As to RRLYHLEGFQRCDVARQLGKNNEF [PSD2], the protein stability index reads like this: (treatment: DMSO) 2.61 ± 0.43; (treatment: MLN4924 1 uM, 8 h) 2.8 ± 0.16.
The corresponding values for RRMAAEATEWQKAGAPPPSGSAVS [SRPK2] are 4.59 ± 0.42 and 4.68 ± 0.29.
Consider RRQARREAEADKPRRLGRLKYQAP [NOP53], for which the protein stability index is, setting by setting: (treatment: DMSO) 4.5 ± 0.35; (treatment: MLN4924 1 uM, 8 h) 4.6 ± 0.24.
In the same order, the values of RRRRIIINVGGIKYSLPWTTLDEF [KCNG1] are 2.48 ± 0.44 and 2.46 ± 0.59.
In the same order, the values of RSGSPTVPIKPPCIPNGKENFSGG [CAMK2D] are 4.2 ± 0.2 and 4.32 ± 0.21.
The corresponding values for RSLQDGTREGFGHSTSLKVPLARS [LCOR] are 4.38 ± 0.27 and 4.37 ± 0.12.
RSPDASPSRAPPSTQEPQSPREGE [GNAS]: the protein stability index reads like this: (treatment: DMSO) 5.36 ± 0.12; (treatment: MLN4924 1 uM, 8 h) 5.42 ± 0.078.
Take RSSGLVQRRTEASRNAADKERAAG [GOLPH3]: the protein stability index (treatment: DMSO) amounted to 5.11 ± 0.3 and the protein stability index (treatment: MLN4924 1 uM, 8 h) was 5.14 ± 0.33.
For RTMDIPRSVQNFRFFASSSLHHTS [ALDH8A1], the protein stability index was determined as 2.43 ± 0.15 (treatment: DMSO) and 2.62 ± 0.2 (treatment: MLN4924 1 uM, 8 h).
In the same order, the values of RTPLMKAARAGHVCTVQFLISKGA [ANKRD17] are 2.27 ± 0.37 and 2.46 ± 0.33.
Regarding RVGIFLDYEAGTLSFYNVTDRSHI [TRIM39], the protein stability index was 2.6 ± 0.77 (treatment: DMSO) and 2.26 ± 0.35 (treatment: MLN4924 1 uM, 8 h).
In the same order, the values of RVGKWHQDFPVKKRKKLSTWKQEL [ZNF75A] are 2.7 ± 0.29 and 2.92 ± 0.4.
The corresponding values for RVLSPLHRGPSGHTEASAQRSHMG are 4.1 ± 0.063 and 4.19 ± 0.16.
Regarding RYSTNLSNHVDDFTTFRGTELSFL [EDNRA], the protein stability index was 2.58 ± 0.17 (treatment: DMSO) and 2.54 ± 0.21 (treatment: MLN4924 1 uM, 8 h).
In the same order, the values of SAAQTDPTTGYRRLLRFSSQIHNN [LOXL2] are 3.1 ± 0.2 and 3.23 ± 0.17.
The corresponding values for SAEEVRFPVSVTQQSPAAVSMETY [C2CD2L] are 4.52 ± 0.33 and 4.71 ± 0.14.
The corresponding values for SAENSVAKKEDKVPVKKQKTRTVF [NANOGP8] are 4.21 ± 0.33 and 4.29 ± 0.34.
Turning to SAERYNPRTNQWSPVVAMTSRRSG [KLHL20], the protein stability index was 4.22 ± 0.061 (treatment: DMSO) and 4.43 ± 0.16 (treatment: MLN4924 1 uM, 8 h).
The corresponding values for SAPATAKENAAAPSPVRAPAPSPA [PALM] are 5.18 ± 0.21 and 5.34 ± 0.17.
With SASEILYSAPPGDPLSTNYSLAPN [NFE2L1], the protein stability index worked out at 4.16 ± 0.29 (treatment: DMSO) and 4.12 ± 0.28 (treatment: MLN4924 1 uM, 8 h).
The corresponding values for SASEPQPASQAASSSSASADLLAG [SNAP91] are 5.51 ± 0.17 and 5.41 ± 0.19.
The corresponding values for SAVEGAPPARPRPRSPECRMIPGQ [IRX6] are 4.86 ± 0.24 and 4.96 ± 0.32.
In the same order, the values of SCCFDPDSQRVASVSLDRCIKIWD [WDR88] are 2.44 ± 0.14 and 2.57 ± 0.36.
SCDDLMGGGGLHSVGTYIIDLLTF [GFOD1]: the protein stability index runs as follows: (treatment: DMSO) 2.75 ± 0.72; (treatment: MLN4924 1 uM, 8 h) 2.41 ± 0.29.
On to SCLRRRRHPPKVGDDSDLSEGFES [SMG5], for which the protein stability index by setting is: (treatment: DMSO) 5.02 ± 0.32; (treatment: MLN4924 1 uM, 8 h) 4.93 ± 0.058.
The corresponding values for SDKDKAVGIFNTVINPMLNPIIYS [OR3A1] are 2.54 ± 0.3 and 2.71 ± 0.25.
In the same order, the values of SDKYPIQDTELPKAEECDTITLNC [EDARADD] are 5.25 ± 0.41 and 5.26 ± 0.21.
The corresponding values for SDLSRRSSSTMSKSEYMEIEEDMN [KCNA1] are 5.21 ± 0.33 and 5.38 ± 0.1.
As for SDNILSPVMNGGVQTWTQPRLCYL [PDZK1], the protein stability index is, setting by setting: (treatment: DMSO) 2.19 ± 0.31; (treatment: MLN4924 1 uM, 8 h) 2.46 ± 0.56.
The corresponding values for SDNLLVILKRKWWKYILLGLADVE [SLC35F2] are 2.38 ± 0.21 and 2.31 ± 0.73.
For SEDAVGGATLGQTTSEEAVGGATL [HDAC6], the protein stability index runs as follows: (treatment: DMSO) 5.54 ± 0.15; (treatment: MLN4924 1 uM, 8 h) 5.18 ± 0.4.
The corresponding values for SELCIWLGSQIKSLCNLEESITSA [FAM98B] are 1.97 ± 0.23 and 2.55 ± 0.18.
In the same order, the values of SEMLDITMKESLTTREIRRQEAIY [NET1] are 3.75 ± 0.18 and 3.91 ± 0.33.
In the same order, the values of SESGADTISVNQTRVNLSSDTEST [DLC1] are 5.33 ± 0.4 and 5.3 ± 0.58.
As to SESQLASTESDKPTTGRVYESDSS [C18orf25], the protein stability index was found to be 5.5 ± 0.15 (treatment: DMSO) and 5.44 ± 0.26 (treatment: MLN4924 1 uM, 8 h).
As for SETPQETYRKVMNWKETLVFPPEV [STK38L], the protein stability index is, setting by setting: (treatment: DMSO) 3.61 ± 0.53; (treatment: MLN4924 1 uM, 8 h) 3.7 ± 0.3.
The corresponding values for SEVEELNMSLTALREKLLEAEQSL [TEKT4] are 3.52 ± 0.35 and 3.87 ± 0.2.
Regarding SEVFGPERMPPSGAARSFQEVTEP [PXN], the protein stability index amounted to 4.77 ± 0.32 (treatment: DMSO) and 5.19 ± 0.21 (treatment: MLN4924 1 uM, 8 h).
In the same order, the values of SFRRNVGRVLLANSTQADEGKTKK [FBXO34] are 4.71 ± 0.46 and 4.85 ± 0.35.
The corresponding values for SFSSLEPDNEQLMEEVISPRQVSY [IQUB] are 4.29 ± 0.2 and 4.56 ± 0.22.
In the same order, the values of SFVLKNFPALLSTGEFLKLPFERL [KLHL13] are 1.94 ± 0.42 and 2.07 ± 0.42.
In turn, SGGYWVGMSTIRPNPGFSMLDFLS [APMAP] gave a protein stability index (treatment: DMSO) of 2.1 ± 0.14 and a protein stability index (treatment: MLN4924 1 uM, 8 h) of 2.32 ± 0.97.
The corresponding values for SGITIPKPPKPPDKPLMPYMRYSR [SMARCE1] are 2.68 ± 0.25 and 3.32 ± 0.23.
In the same order, the values of SGLIQTVFISSYMVLAPVFGYLGD [SPNS1] are 3.5 ± 0.3 and 3.16 ± 0.22.
The corresponding values for SGSESDHTTRSSLRGPRERAPSER [DVL3] are 5.33 ± 0.32 and 5.39 ± 0.24.
Consider SHGVRNKCLQLLGNLGSLEKSVTK [INTS4], for which the protein stability index is, setting by setting: (treatment: DMSO) 3.23 ± 0.27; (treatment: MLN4924 1 uM, 8 h) 3.28 ± 0.22.
The corresponding values for SIVAVGFHIFRTLEVNRLMGKLLQ [PKD2L1] are 3.03 ± 0.56 and 2.55 ± 0.5.
The corresponding values for SKLEERFGPDSKSSALACTLPTLP [NCF4] are 4.04 ± 0.19 and 4.21 ± 0.17.
In the same order, the values of SLLDELMEVQHFRTIYHMFIAGLC [SOAT2] are 2.59 ± 0.55 and 2.49 ± 0.42.
On to SLLKKPDGVKESTESSNTTIEDED [CAMK2D], for which the protein stability index by setting is: (treatment: DMSO) 5.52 ± 0.11; (treatment: MLN4924 1 uM, 8 h) 5.43 ± 0.19.
Turning to SLNSTFGSTNLTGLFFPPQLNGTA [NFE2L1], the protein stability index by setting is: (treatment: DMSO) 2.52 ± 0.35; (treatment: MLN4924 1 uM, 8 h) 2.92 ± 0.38.
The corresponding values for SLQSCMHFQPNSPASDLEAALEAA [NANOGP8] are 4.6 ± 0.22 and 4.63 ± 0.27.
The corresponding values for SLRGRAWQYLSGGKVKLQQNPGKF [TBC1D10A] are 3.13 ± 0.52 and 2.94 ± 0.29.
The corresponding values for SLRRRGASAAARLGCNRQSWCLKR [TRIM14] are 3.28 ± 0.28 and 3.16 ± 0.58.

The values above are taken from the supplement of paper PMC10567573.
